T1: hGP130-his (Sino Biological, Catalog #10974) (human, UniProt P40189 23-619)
T1 construct: Bought his-tagged cytokine receptor used as SPR analyte; also called human gp130 receptor subunit; IL6 receptor beta subunit; not shown: his tag
T1 sequence: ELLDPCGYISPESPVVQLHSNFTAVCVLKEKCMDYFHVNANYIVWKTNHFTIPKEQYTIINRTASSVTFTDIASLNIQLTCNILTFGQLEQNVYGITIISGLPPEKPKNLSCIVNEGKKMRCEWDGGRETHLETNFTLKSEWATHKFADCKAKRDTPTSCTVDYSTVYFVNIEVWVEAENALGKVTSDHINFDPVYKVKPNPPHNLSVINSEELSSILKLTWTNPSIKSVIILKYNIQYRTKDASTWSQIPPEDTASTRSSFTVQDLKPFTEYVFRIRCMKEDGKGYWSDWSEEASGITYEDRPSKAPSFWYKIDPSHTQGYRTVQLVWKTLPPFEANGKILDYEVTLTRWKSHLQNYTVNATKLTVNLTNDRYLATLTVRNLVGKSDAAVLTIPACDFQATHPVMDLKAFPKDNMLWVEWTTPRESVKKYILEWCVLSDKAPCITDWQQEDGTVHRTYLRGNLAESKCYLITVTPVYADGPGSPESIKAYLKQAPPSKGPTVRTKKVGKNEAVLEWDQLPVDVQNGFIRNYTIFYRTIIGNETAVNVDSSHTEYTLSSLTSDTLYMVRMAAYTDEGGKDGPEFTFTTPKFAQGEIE

T2: hIL27Ra-his (Origene, Catalog #TP307012) (human, UniProt Q6UWB1 33-516, limits assumed)
T2 construct: Bought his-tagged cytokine receptor used as SPR analyte; also called human IL27 receptor subunit alpha; not shown: his tag
T2 sequence: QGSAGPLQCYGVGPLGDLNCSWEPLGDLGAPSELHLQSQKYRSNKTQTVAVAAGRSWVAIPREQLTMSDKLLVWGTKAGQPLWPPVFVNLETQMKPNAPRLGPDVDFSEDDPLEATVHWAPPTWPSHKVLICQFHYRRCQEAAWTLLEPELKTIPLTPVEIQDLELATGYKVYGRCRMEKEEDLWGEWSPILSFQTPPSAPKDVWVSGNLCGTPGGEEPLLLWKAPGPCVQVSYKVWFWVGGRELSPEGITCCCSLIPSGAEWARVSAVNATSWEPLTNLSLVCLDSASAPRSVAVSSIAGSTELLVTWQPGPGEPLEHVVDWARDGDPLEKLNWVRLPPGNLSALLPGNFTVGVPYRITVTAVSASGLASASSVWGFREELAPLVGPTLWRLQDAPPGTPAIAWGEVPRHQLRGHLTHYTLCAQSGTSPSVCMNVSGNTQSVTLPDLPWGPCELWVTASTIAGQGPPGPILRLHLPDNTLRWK


Key:
[1] = molecular target: T1, hGP130-his (Sino Biological, Catalog …); test: SPR Biacore T200, hgp130 arm
Protocol: (§1) All experiments were conducted in 10 mM Hepes, 150 mMv NaCl, 0.05% (v/v) Polysorbate 20 (PS20) and 3 mMv EDTA (HBS-EP+ buffer) on a Biacore® T200 instrument equipped with a Protein A chip (Cytiva). Mono-Fc VHH ligands were flowed at 5 μl/min for variable time ranging from 18 to 300 seconds, reaching the capture loads listed in the tables below.
(§2) Following ligand capture, injections of a 2-fold dilution series of his-tagged cytokine receptors typically comprising at least five concentrations between 1 μM and 1 nM were performed in either high performance or single cycle kinetics mode. Surface regeneration was achieved by flowing 10 mMv glycine-HCl, pH 1.5 (60 seconds, 50 μL/min). Buffer-subtracted sensograms were processed with Biacore® T200 Evaluation Software and globally fit with a 1:1 Langmuir binding model (bulk shift set to zero) to extract kinetics and affinity constants (ka, kd, KD). RMAX<100 RU indicates surface density compatible with kinetics analysis. Calculated Rmax were generated using the equation Rmax=Load (RU)×valency of ligand×(Molecular weight of analyte/Molecular weight of ligand. Surface activity was defined as the ratio experimental/calculated Rmax. See tables below for sample information and experimental results.

[2] = molecular target: T1, hGP130-his (Sino Biological, Catalog …); test: SPR Biacore T200; ratio experimental/calculated Rmax
Protocol: as §1, §2

[3] = molecular target: T1, hGP130-his (Sino Biological, Catalog …); test: SPR Biacore T200; mono-Fc VHH on Protein A chip, hGP130-his analyte
Protocol: as §1, §2

[4] = molecular target: T2, hIL27Ra-his (Origene, Catalog #TP307012); test: SPR Biacore T200, hIL27Ra arm
[5] = molecular target: T2, hIL27Ra-his (Origene, Catalog #TP307012); test: SPR Biacore T200; mono-Fc VHH on Protein A chip, hIL27Ra-his analyte
Protocol: as §1, §2

[6] = molecular target: T2, hIL27Ra-his (Origene, Catalog #TP307012); test: SPR Biacore T200; ratio experimental/calculated Rmax
Protocol: as §1, §2

Binder | Kd [1] [nM] | koff [1] [s⁻¹] | kon [1] [M⁻¹ s⁻¹] | Surface Activity [2] [%] | Kd [3] [nM] | koff [3] [s⁻¹] | kon [3] [M⁻¹ s⁻¹] | Kd [4] [nM] | koff [4] [s⁻¹] | kon [4] [M⁻¹ s⁻¹] | Kd [5] [nM] | koff [5] [s⁻¹] | kon [5] [M⁻¹ s⁻¹] | Surface Activity [6] [%]
14-DR591 (SEQ ID NO. 232), anti-hGP130 Mono-Fc VHH (Fc fusion, Tested as Mono-Fc VHH ligand captured on a Protein A chip; not shown: mono-Fc part) QVQLQESGGGSVQAGGSLRLSCTASGAIASGYIDSRWCMAWFRQAPGKEREGVAAIWPGGGLTVYADSVKGRFTISRDHAKNTLYLQMNNLKPEDTAMYYCAAGSPRMCPSLEFGFDYWGQGTQVTVSS | 33 | 0.0019 | 59000 | 21 | 33 | 0.0019 | 59000 | – | – | – | – | – | – | –
15-DR592 (SEQ ID NO. 233), anti-hGP130 Mono-Fc VHH (Fc fusion, Mono-Fc VHH ligand captured on a Protein A chip; not shown: mono-Fc part) QVQLQESGGGSVQAGGSLRLSCTAPGFTSNSCGMDWYRQAPGKEREFVSSISTDGTTGYADSVKGRFTISKDKAKDTVYLQMNSLKPEDTGMYSCKTKDGTIATMELCDFGYWGQGTQVTVSS | 38 | 0.0059 | 160000 | 33 | 38 | 0.0059 | 160000 | – | – | – | – | – | – | –
hIL27Ra_VHH21 (VHH) VHH: QVQLQESGGGLVQPGGSLRLSCAASGFTFSLSSMSWVRQAPGKGLEWVSAISSGGASTYYTDSVKGRFTISRDNAKNMLYLQLNSLKTEDTAMYYCAKGGSGYGDASRMTSPGSQGTQVTVSS | – | – | – | – | – | – | – | 6.1 | 0.00077 | 130000 | – | – | – | –
hIL27Ra_VHH1 (VHH) VHH: QVQLQESGGGLVQPGGSLRLSCAASGFTFSSYPMSWVRQAPGKGLEWISTISAGGDTTLYADSVKGRFTSSRDNAKNTLYLQLNSLKTEDAAIYYCAKRIDCNSGYCYRRNYWGQGTQVTVSS | – | – | – | – | – | – | – | 19 | 0.00057 | 30000 | – | – | – | –
16-DR593 (SEQ ID NO. 234), anti-hGP130 Mono-Fc VHH (Fc fusion, Mono-Fc VHH ligand captured on a Protein A chip; not shown: mono-Fc part) QVQLQESGGGSVQAGGSLRLSCAASGYPYSNGYMGWFRQAPGKEREGVATIYTGDGRTYYADSVKGRFTISRDNAKNTVDLQMSSLKPEDTAMYYCAARAAPLYSSGSPLTRARYNVWGQGTQVTVSS | 82 | 0.021 | 250000 | 20 | 82 | 0.021 | 250000 | – | – | – | – | – | – | –
hIL27Ra_VHH9 (VHH) VHH: QVQLQESGGGSVQSGGSLRLSCAASGFTYSTSNSWMAWFRQAPGKEREGVAAIYTVGGSIFYADSVRGRFTISQDATKNMFYLQMNTLKPEDTAMYYCAAASGRLRGKWFWPYEYNYWGQGTQVTVSS | – | – | – | – | – | – | – | 4.5 | 0.00041 | 91000 | – | – | – | –
hIL27Ra_VHH15 (VHH) VHH: QVQLQESGGGSVQAGGSLRLSCVASGYVSCDYFLPSWYRQAPGKEREFVSIIDGTGSTSYAASVKGRFTASQDKGKNIAYLQMNTLKPEDTAMYYCKASCVRGRAISEYWGQGTQVTVSS | – | – | – | – | – | – | – | 17 | 0.001 | 59000 | – | – | – | –
hIL27Ra_VHH19 (VHH) VHH: QVQLQESGGGSVQAGGSLRLSCRASGSTYSNYCLGWFRQITGKEREGVAVINWVGGMLYFADSVKGRFTVSQDQAKNTVYLQMNSLKPEDTAMYYCAAESVSSFSCGGWLTRPDRVPYWGQGTQVTVSS | – | – | – | – | – | – | – | 5.2 | 0.00076 | 150000 | – | – | – | –
17-DR594 (SEQ ID NO. 235), anti-hGP130 Mono-Fc VHH (Fc fusion, Mono-Fc VHH ligand captured on a Protein A chip; not shown: mono-Fc part) QVQLQESGGGSVQAGGSLRLSCVASASTYCTYDMHWYRQAPGKGREFVSAIDSDGTTRYADSVKGRFTISQGTAKNTVYLQMNSLQPEDTAMYYCKTVCVVGSRWSDYWGQGTQVTVSS | 58 | 0.0095 | 160000 | 21 | 58 | 0.0095 | 160000 | – | – | – | – | – | – | –
18-DR595 (SEQ ID NO. 236), anti-hGP130 Mono-Fc VHH (Fc fusion, Mono-Fc VHH ligand captured on a Protein A chip; not shown: mono-Fc part) QVQLQESGGGSVQAGGSLTLSCAASEYAYSTCNMGWYRQAPGKERELVSAFISDGSTYYADSVKGRFTITRDNAKNTVYLQMNSLKPEDTAIYYCSANCYRRLRNYWGQGTQVTVSS | 41 | 0.0073 | 180000 | 33 | 41 | 0.0073 | 180000 | – | – | – | – | – | – | –
19-DR596 (SEQ ID NO. 237), anti-hGP130 Mono-Fc VHH (Fc fusion, Mono-Fc VHH ligand captured on a Protein A chip; not shown: mono-Fc part) QVQLQESGGGLVQPGGSLRLSCTASGLTFDDSVMGWFRQAPGKGREAVSCISSSGANAFYADSVKGRFTISRDNAKNTLYLQMNSLKPEDTATYYCKRGHACAGYYPIPYDDYWGQGTQVTVSS | 44 | 0.0082 | 190000 | 28 | 44 | 0.0082 | 190000 | – | – | – | – | – | – | –
20-DR597 (SEQ ID NO. 245), anti-hIL27Ra Mono-Fc VHH (Fc fusion, Mono-Fc VHH ligand captured on a Protein A chip; not shown: mono-Fc part) QVQLQESGGGLVQPGGSLRLSCAASGFTFSSYPMSWVRQAPGKGLEWISTISAGGDTTLYADSVKGRFTSSRDNAKNTLYLQLNSLKTEDAAIYYCAKRIDCNSGYCYRRNYWGQGTQVTVSS | – | – | – | – | – | – | – | – | – | – | 19 | 0.00057 | 30000 | 4
24-DR601 (SEQ ID NO. 249), anti-hIL27Ra Mono-Fc VHH (Fc fusion, Mono-Fc VHH ligand captured on a Protein A chip; not shown: mono-Fc part) QVQLQESGGGSVQAGGSLRLSCVASGYVSCDYFLPSWYRQAPGKEREFVSIIDGTGSTSYAASVKGRFTASQDKGKNIAYLQMNTLKPEDTAMYYCKASCVRGRAISEYWGQGTQVTVSS | – | – | – | – | – | – | – | – | – | – | 4.5 | 0.00041 | 91000 | 12
23-DR600 (SEQ ID NO. 248), anti-hIL27Ra Mono-Fc VHH (Fc fusion, Mono-Fc VHH ligand captured on a Protein A chip; not shown: mono-Fc part) QVQLQESGGGSVQSGGSLRLSCAASGFTYSTSNSWMAWFRQAPGKEREGVAAIYTVGGSIFYADSVRGRFTISQDATKNMFYLQMNTLKPEDTAMYYCAAASGRLRGKWFWPYEYNYWGQGTQVTVSS | – | – | – | – | – | – | – | – | – | – | 17 | 0.001 | 59000 | 13
25-DR602 (SEQ ID NO. 250), anti-hIL27Ra Mono-Fc VHH (Fc fusion, Mono-Fc VHH ligand captured on a Protein A chip; not shown: mono-Fc part) QVQLQESGGGSVQAGGSLRLSCRASGSTYSNYCLGWFRQITGKEREGVAVINWVGGMLYFADSVKGRFTVSQDQAKNTVYLQMNSLKPEDTAMYYCAAESVSSFSCGGWLTRPDRVPYWGQGTQVTVSS | – | – | – | – | – | – | – | – | – | – | 5.2 | 0.00076 | 150000 | 20
26-DR603 (SEQ ID NO. 251), anti-hIL27Ra Mono-Fc VHH (Fc fusion, Mono-Fc VHH ligand captured on a Protein A chip; not shown: mono-Fc part) QVQLQESGGGLVQPGGSLRLSCAASGFTFSLSSMSWVRQAPGKGLEWVSAISSGGASTYYTDSVKGRFTISRDNAKNMLYLQLNSLKTEDTAMYYCAKGGSGYGDASRMTSPGSQGTQVTVSS | – | – | – | – | – | – | – | – | – | – | 6.1 | 0.00077 | 130000 | 18
